In patent US20200377555A1 (Janssen / Centocor, published 2020) one finds Kd and EC50 data, which are given here for 1 molecule.

Assay [1] has as its target T1, UFV160656 (influenza A H1N1 A/California/07/09).
The target in assay [2] is T2, UFV160664 (influenza A H1N1 A/California/07/09).
Assay [3] deals with T3, UFV160665 (influenza A H1N1 A/California/07/09).
For assay [4], the target named is T4, UFV160655 (influenza A H1N1 A/Brisbane/59/07).
Another assay addresses UFV5369 (influenza A H1N1 A/California/07/09).
In assay [5] the target is T1, UFV160656. In words: ELISA, polypeptide coated, antibody titrated; average of 3 independent assays.
The target in assay [6] is T2, UFV160664. The assay is described as above.
The target in assay [7] is T3, UFV160665. The assay is described as above.
The target of assay [8] is T4, UFV160655. The assay is described as above.

B1: CR6261 (antibody, V domains shown)
VH: EVQLVESGAEVKKPGSSVKVSCKASGGPFRSYAISWVRQAPGQGPEWMGGIIPIFGTTKYAPKFQGRVTITADDFAGTVYMELSSLRSEDTAMYYCAKHMGYQVRETMDVWGKGTTVTVSS
VL: QSVLTQPPSVSAAPGQKVTISCSGSSSNIGNDYVSWYQQLPGTAPKLLIYDNNKRPSGIPDRFSGSKSGTSATLGITGLQTGDEANYYCATWDRRPTAYVVFGGGTKLTVLG
By Kd is commonly meant a measure of binding affinity in units of concentration. Low readings indicate a tighter complex, high ones a looser complex. As a reminder, the EC50 is the midpoint of the concentration-response curve. With B1, the Kd was 600 pM in the assay with UFV160656 [1]; 570 pM in the assay with UFV160664 [2]; 560 pM with UFV160665 [3]; 550 pM with UFV160655 [4]; 970 pM in the assay with UFV5369. Also, the EC50 turned out to be 432 pM with UFV160656 [5], 395 pM with UFV160664 [6], 425 pM in the assay with UFV160665 [7] and 396 pM in the assay with UFV160655 [8].
